Data on four molecules can be found in PMC3949306.

As a reminder, the Kd is the concentration at which binding is half-saturated. Broadly, the koff is the first-order rate constant of dissociation.

Test [1] addresses PP2A-B55 heterotrimer (B55 isoform not named for the experiment) (not stated | human (endogenous in HEK293)) (UniProt P63151).
The target is the same in test [2]. The test can be described thus: inhibition of phosphatase activity, IC50 converted to Kd; PP2A-B55 at 0.125 nM, radioactive CDKS substrate at 5 μM, varying thiophosphorylated Endos; Kd calculated from the IC50 according to the equation of Sasaki et al. (1994) and Takai et al. (1995).
Test [3] shares this target. This is another data set of the same source.
For test [4] the target is unchanged. Put plainly: rate constants calculated from constants of phosphatase activity assays; kon and koff determined from the experimentally measured Kd (for thiophosphorylated Endos) and kcat; used for the theoretical time-course of Figure 10A.
Test [5] deals with PP2A-B55α heterotrimer (not stated | human (endogenous in HEK293)) (UniProt P63151).

Sequence of UniProt P63151 (P63151 whole entry, chain 1 of 3): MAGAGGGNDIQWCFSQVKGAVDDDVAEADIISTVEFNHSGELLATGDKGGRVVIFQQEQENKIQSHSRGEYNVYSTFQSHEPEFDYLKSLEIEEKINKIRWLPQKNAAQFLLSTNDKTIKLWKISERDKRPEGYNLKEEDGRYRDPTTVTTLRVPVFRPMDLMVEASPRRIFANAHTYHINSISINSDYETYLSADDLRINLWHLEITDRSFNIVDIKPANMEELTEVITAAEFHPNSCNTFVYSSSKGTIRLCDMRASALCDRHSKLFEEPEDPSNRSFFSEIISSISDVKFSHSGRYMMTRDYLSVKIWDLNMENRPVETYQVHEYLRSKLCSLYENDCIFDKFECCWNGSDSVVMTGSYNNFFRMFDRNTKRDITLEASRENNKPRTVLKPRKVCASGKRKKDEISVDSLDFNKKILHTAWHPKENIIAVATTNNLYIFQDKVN
Sequence of UniProt P63151 (P30153 whole entry, chain 2 of 3, further chain): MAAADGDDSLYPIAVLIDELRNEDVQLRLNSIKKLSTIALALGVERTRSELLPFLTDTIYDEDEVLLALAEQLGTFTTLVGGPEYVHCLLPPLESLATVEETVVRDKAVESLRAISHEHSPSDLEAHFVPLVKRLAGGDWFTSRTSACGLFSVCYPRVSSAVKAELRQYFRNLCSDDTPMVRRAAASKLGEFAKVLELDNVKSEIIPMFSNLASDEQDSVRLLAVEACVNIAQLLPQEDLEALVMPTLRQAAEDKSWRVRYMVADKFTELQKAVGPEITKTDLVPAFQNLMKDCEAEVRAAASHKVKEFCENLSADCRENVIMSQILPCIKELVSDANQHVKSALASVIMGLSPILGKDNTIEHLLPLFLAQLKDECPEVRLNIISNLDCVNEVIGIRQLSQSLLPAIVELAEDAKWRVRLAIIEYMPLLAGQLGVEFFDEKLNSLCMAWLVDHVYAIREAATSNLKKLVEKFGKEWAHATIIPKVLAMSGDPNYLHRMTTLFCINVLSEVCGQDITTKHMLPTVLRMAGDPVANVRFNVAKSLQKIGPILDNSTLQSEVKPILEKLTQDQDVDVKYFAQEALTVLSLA
Sequence of UniProt P63151 (P67775 whole entry, chain 3 of 3, further chain): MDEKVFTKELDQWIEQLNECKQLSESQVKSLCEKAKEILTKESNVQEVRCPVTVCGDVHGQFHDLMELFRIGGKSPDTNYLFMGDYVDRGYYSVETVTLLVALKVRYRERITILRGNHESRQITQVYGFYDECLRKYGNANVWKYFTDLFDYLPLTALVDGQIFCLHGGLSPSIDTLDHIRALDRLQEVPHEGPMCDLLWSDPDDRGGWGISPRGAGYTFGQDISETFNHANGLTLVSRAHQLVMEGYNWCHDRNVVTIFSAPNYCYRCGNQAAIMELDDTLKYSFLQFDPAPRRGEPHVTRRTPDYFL

B1: Xenopus Endosulfine thiophosphorylated by Gwl kinase (natural protein)
chain: MSDKYIGDSHLEETGEEKQDSQEKEAVTPEKAEEQKLKAKYPNLGQKPGGSDFLMKRLQKGQKYFDSGDYNMAKAKIKNKQLPCAGPDKNLVTGDHIPTPQDLPQRKSSLVTSKLAGHVEDLHHV
modifications: thiophosphorylated by Gwl in the presence of 1 mM ATP-[γ]-35S instead of ATP
As for B1, the IC50 of inhibition of PP2A-B55's anti-CDKS activity (dephosphorylation of radioactive pCDKS) in test [1] stood at 197 pM. Further, the dissociation constant Kd in test [2] is 0.12 nM.

B2: unphosphorylated Xenopus Endosulfine (natural protein)
chain: MSDKYIGDSHLEETGEEKQDSQEKEAVTPEKAEEQKLKAKYPNLGQKPGGSDFLMKRLQKGQKYFDSGDYNMAKAKIKNKQLPCAGPDKNLVTGDHIPTPQDLPQRKSSLVTSKLAGHVEDLHHV
As to B2, the IC50 of inhibition of PP2A-B55's anti-CDKS activity (dephosphorylation of radioactive pCDKS) in test [1] came out at 566 nM.

B3: Gwl-phosphorylated Xenopus Endosulfine (pEndos) (natural protein)
chain: MSDKYIGDSHLEETGEEKQDSQEKEAVTPEKAEEQKLKAKYPNLGQKPGGSDFLMKRLQKGQKYFDSGDYNMAKAKIKNKQLPCAGPDKNLVTGDHIPTPQDLPQRKSSLVTSKLAGHVEDLHHV
modifications: phosphorylated in vitro by Gwl kinase at the Gwl site (32P-labelled or non-radioactive); between 0.5 and 1.0 phosphate per mole of protein
With B3, the Km of pEndos for PP2A-B55, best fit to the time course of pCDKS dephosphorylation with 16 nM unlabeled pEndos (Figure 8B) in test [3] worked out at 0.47 nM. Moreover, the koff in test [4] is 0.0068 s⁻¹.

B4: phosphomimetic Drosophila Endos (S68D) (natural protein)
chain: MSSAEENSNSPATTPQDTETTEQANLTDLEKIEEEKLKSKYPSGMRVPGGHSAFLQKRLQKGQKFFDDGDYQMAKQKGGGVKQVFANKVTTGEAIPTPETVPARKTSIIQPCNKFPATS
On to B4, for which the IC50 of inhibition of the anti-CDKS activity of purified PP2A-B55α (Figure 6D) in test [5] is 500 nM.
